Measured values: PMC8629192 (bioRxiv, 2021)

Molecular target: SARS-CoV-2 spike RBD-Fc recombinant protein (used for ELISA) (SARS-CoV-2, UniProt P0DTC2)
Test: ELISA

B1: LRRC15-His (natural protein)
chain: YHGCPSECTCSRASQVECTGARIVAVPTPLPWNAMSLQILNTHITELNESPFLNISALIALRIEKNELSRITPGAFRNLGSLRYLSLANNKLQVLPIGLFQGLDSLESLLLSSNQLLQIQPAHFSQCSNLKELQLHGNHLEYIPDGAFDHLVGLTKLNLGKNSLTHISPRVFQHLGNLQVLRLYENRLTDIPMGTFDGLVNLQELALQQNQIGLLSPGLFHNNHNLQRLYLSNNHISQLPPSVFMQLPQLNRLTLFGNSLKELSPGIFGPMPNLRELWLYDNHISSLPDNVFSNLRQLQVLILSRNQISFISPGAFNGLTELRELSLHTNALQDLDGNVFRMLANLQNISLQNNRLRQLPGNIFANVNGLMAIQLQNNQLENLPLGIFDHLGKLCELRLYDNPWRCDSDILPLRNWLLLNQPRLGTDTVPVCFSPANVRGQSLIIINVNVAVPSVHVPEVPSYPETPWYPDTPSYPDTTSVSSTTELTSPVEDYTDLTTIQVTDDRSVWGMTQAQSG
- binding result: binds
